The record followed here is the supplement of paper PMC11246515.

± gives the standard deviation of the averaged measurements. Where only a bound is given, the exact number is not on record here.

A short description of the data set: total protein half-life in vivo (active degradation + dilution); higher = more stable protein.
Setting [1] is: E. coli NCM3722 delta-clpP delta-lon delta-hslV, growth: N-lim chemostat, doubling time 6 h.
[2] abbreviates: E. coli NCM3722 delta-clpP, growth: N-lim chemostat, doubling time 6 h.
The mark [3] stands for this setting: E. coli NCM3722 delta-hslV, growth: N-lim chemostat, doubling time 6 h.
Setting [4] is: E. coli NCM3722 delta-lon, growth: N-lim chemostat, doubling time 6 h.
[5] abbreviates: E. coli NCM3722 delta-smpB, growth: N-lim chemostat, doubling time 6 h.
[6] abbreviates: wild type E. coli NCM3722, growth: C-lim chemostat, doubling time 3 h.
Setting [7] is: wild type E. coli NCM3722, growth: C-lim chemostat, doubling time 6 h.
The mark [8] stands for this setting: wild type E. coli NCM3722, growth: C-lim chemostat, doubling time 12 h.
Setting [9] is: wild type E. coli NCM3722, growth: N-lim chemostat, doubling time 6 h.
[10] abbreviates: wild type E. coli NCM3722, growth: P-lim chemostat, doubling time 6 h.
Where [11] appears, read: wild type E. coli NCM3722, growth: P-lim chemostat, doubling time 12 h.
The mark [12] stands for this setting: wild type E. coli NCM3722, growth: N-lim chemostat, doubling time 12 h.

For the sequence “MLTVKQIEAAKPKEKPYRLLDGNGLYLYVPVSGKKVWQLRYKIDGKEKILTVGKYPLMTLQEARDKAWTARKDISVGIDPVKAKKASSNNNSFSAIYKEWYEHKKQVWSVGYATELAKMFDDDILPIIGGLEIQDIEPMQLLEVIRRFEDRGAMERANKARRRCGEVFRYAIVTGRAKYNPAPDLADAMKGYRKKNFPFLPADQIPAFNKALATFSGSIVSLIATKVLRYTALRTKELRSMLWKNVDFENRIITIDASVMKGRKIHVVPMSDQVVELLTTLSSITKPVSEFVFAGRNDKKKPICENAVLLVIKQIGYEGLESGHGFRHEFSTIMNEHEWPADAIEVQLAHANGGSVRGIYNHAQYLDKRREMMQWWADWLDEKVE”, the “total protein half-life in vivo” value by setting is: under setting [1], 6.44 ± 2.1 h; under setting [2], 5.79 ± 0.58 h; under setting [3], 5.96 ± 0.24 h; under setting [4], 5.37 ± 0.098 h; under setting [5], 5.02 ± 0.39 h; under setting [6], 3.123 ± 0.013 h. Also, the “total protein half-life in vivo” value by setting is: under setting [7], 5.53 ± 0.077 h; under setting [8], 10.3 ± 0.26 h; under setting [9], 5.503 ± 0.0091 h; under setting [10], 5.34 ± 0.46 h; under setting [11], 10.8 ± 1.7 h.
As to “MSNQGEYPEDNRVGKHEPHDLSLTRRDLIKVSAATAATAVVYPHSTLAASVPAATPAPEIMPLTLKVNGKTEQLEVDTRTTLLDTLRENLHLIGTKKGCDHGQCGACTVLVNGRRLNACLTLAVMHQGAEITTIEGLGSPDNLHPMQAAFIKHDGFQCGYCTSGQICSSVAVLKEIQDGIPSHVTVDLVSAPETTADEIRERMSGNICRCGAYANILAAIEDAAGEIKS”, the “total protein half-life in vivo” value under setting [1] turned out to be 2.91 ± 0.9 h and the “total protein half-life in vivo” value under setting [4] is 2.02 h.
With “MKEKTIIIVGGGQAAAMAAASLRQQGFTGELHLFSDERHLPYERPPLSKSMLLEDSPQLQQVLPANWWQENNVHLHSGVTIKTLGRDTRELVLTNGESWHWDQLFIATGAAARPLPLLDALGERCFTLRHAGDAARLREVLQPERSVVIIGAGTIGLELAASATQRRCKVTVIELAATVMGRNAPPPVQRYLLQRHQQAGVRILLNNAIEHVVDGEKVELTLQSGETLQADVVIYGIGISANEQLAREANLDTANGIVIDEACRTCDPAIFAGGDVAITRLDNGALHRCESWENANNQAQIAAAAMLGLPLPLLPPPWFWSDQYSDNLQFIGDMRGDDWLCRGNPETQKAIWFNLQNGVLIGAVTLNQGREIRPIRKWIQSGKTFDAKLLIDENIALKSL”, the “total protein half-life in vivo” value is, setting by setting: under setting [1], 5.74 ± 1.6 h; under setting [2], 1.04 h; under setting [6], 3.07 h; under setting [7], 2.51 ± 0.54 h; under setting [8], 2.78 ± 0.14 h; under setting [12], 1.3 h. The “total protein half-life in vivo” value worked out at 1.03 h under setting [10] and 2.31 ± 0.41 h under setting [11].
“MAASTFFIPSVNVIGADSLTDAMNMMADYGFTRTLIVTDNMLTKLGMAGDVQKALEERNIFSVIYDGTQPNPTTENVAAGLKLLKENNCDSVISLGGGSPHDCAKGIALVAANGGDIRDYEGVDRSAKPQLPMIAINTTAGTASEMTRFCIITDEARHIKMAIVDKHVTPLLSVNDSSLMIGMPKSLTAATGMDALTHAIEAYVSIAATPITDACALKAVTMIAENLPLAVEDGSNAKAREAMAYAQFLAGMAFNNASLGYVHAMAHQLGGFYNLPHGVCNAVLLPHVQVFNSKVAAARLRDCAAAMGVNVTGKNDAEGAEACINAIRELAKKVDIPAGLRDLNVKEEDFAVLATNALKDACGFTNPIQATHEEIVAIYRAAM”: the “total protein half-life in vivo” value is, setting by setting: under setting [10], 4.98 h; under setting [11], 9.25 ± 2.1 h.
Regarding “MESLASLYKNHIATLQERTRDALARFKLDALLIHSGELFNVFLDDHPYPFKVNPQFKAWVPVTQVPNCWLLVDGVNKPKLWFYLPVDYWHNVEPLPTSFWTEDVEVIALPKADGIGSLLPAARGNIGYIGPVPERALQLGIEASNINPKGVIDYLHYYRSFKTEYELACMREAQKMAVNGHRAAEEAFRSGMSEFDINIAYLTATGHRDTDVPYSNIVALNEHAAVLHYTKLDHQAPEEMRSFLLDAGAEYNGYAADLTRTWSAKSDNDYAQLVKDVNDEQLALIATMKAGVSYVDYHIQFHQRIAKLLRKHQIITDMSEEAMVENDLTGPFMPHGIGHPLGLQVHDVAGFMQDDSGTHLAAPAKYPYLRCTRILQPGMVLTIEPGIYFIESLLAPWREGQFSKHFNWQKIEALKPFGGIRIEDNVVIHENNVENMTRDLKLA”, the “total protein half-life in vivo” value under setting [1] was determined as 5.4 ± 0.69 h; the “total protein half-life in vivo” value under setting [2] stood at 4.93 ± 0.32 h; the “total protein half-life in vivo” value under setting [3] is 5.12 ± 0.4 h; the “total protein half-life in vivo” value under setting [4] was determined as 5.92 ± 0.92 h; the “total protein half-life in vivo” value under setting [5] was 4.33 ± 0.059 h; the “total protein half-life in vivo” value under setting [6] amounted to 3.21 ± 0.37 h. For the same sequence, the “total protein half-life in vivo” value stood at 5.72 ± 0.084 h under setting [7]; 10.2 ± 1.3 h under setting [8]; 4.77 ± 0.23 h under setting [9]; 8.64 ± 0.18 h under setting [12]; 6.13 ± 0.18 h under setting [10]; 11.9 ± 0.27 h under setting [11].
Take “MKLISNDLRDGDKLPHRHVFNGMGYDGDNISPHLAWDDVPAGTKSFVVTCYDPDAPTGSGWWHWVVVNLPADTRVLPQGFGSGLVAMPDGVLQTRTDFGKTGYDGAAPPKGETHRYIFTVHALDIERIDVDEGASGAMVGFNVHFHSLASASITAMFS”: the “total protein half-life in vivo” value under setting [2] was 5.59 ± 0.26 h; the “total protein half-life in vivo” value under setting [3] was more than 8 h; the “total protein half-life in vivo” value under setting [4] stood at 5.79 ± 0.095 h; the “total protein half-life in vivo” value under setting [5] is 5.96 ± 0.2 h; the “total protein half-life in vivo” value under setting [7] worked out at 6.07 ± 0.44 h; the “total protein half-life in vivo” value under setting [8] came to 13.4 ± 2 h. For the same sequence, the “total protein half-life in vivo” value is, setting by setting: under setting [9], 5.42 ± 0.21 h; under setting [12], 11.4 ± 1.1 h; under setting [10], 6.04 ± 0.39 h; under setting [11], 10.9 ± 2.7 h.
With “MQESIQLVIDSLPFLLKGAGYTLQLSIGGMFFGLLLGFILALMRLSPIWPVRWLARFYISIFRGTPLIAQLFMIYYGLPQFGIELDPIPSAMIGLSLNTAAYAAETLRAAISSIDKGQWEAAASIGMTPWQTMRRAILPQAARVALPPLSNSFISLVKDTSLAATIQVPELFRQAQLITSRTLEVFTMYLAASLIYWIMATVLSTLQNHFENQLNRQEREPK [P0AFT2]”, the “total protein half-life in vivo” value is, setting by setting: under setting [2], 7.13 h; under setting [3], 7.23 h; under setting [6], 3.14 h; under setting [7], 5.37 ± 0.3 h; under setting [8], 15.7 ± 0.28 h; under setting [9], 6.07 ± 0.14 h. Also, the “total protein half-life in vivo” value under setting [12] amounted to 11.2 ± 4.2 h, the “total protein half-life in vivo” value under setting [10] worked out at 6 ± 0.41 h and the “total protein half-life in vivo” value under setting [11] came out at 11.9 ± 0.19 h.
Turning to “MDMHSGTFNPQDFAWQGLTLTPAAAIHIRELVAKQPGMVGVRLGVKQTGCAGFGYVLDSVSEPDKDDLLFEHDGAKLFVPLQAMPFIDGTEVDFVREGLNQIFKFHNPKAQNECGCGESFGV”, the “total protein half-life in vivo” value by setting is: under setting [1], 4.64 ± 0.11 h; under setting [2], 2.79 h; under setting [4], 3.64 h; under setting [5], 2.14 h; under setting [6], 1.94 ± 0.049 h; under setting [7], 3.99 ± 0.5 h. The “total protein half-life in vivo” value came out at 4.5 h under setting [8]; 1.86 ± 0.16 h under setting [9]; 2.58 h under setting [12]; 2.69 h under setting [10]; 4.79 ± 0.6 h under setting [11].
In the case of “MASTARSLRYALAILTTSLVTPSVWAHAHLTHQYPAANAQVTAAPQAITLNFSEGVETGFSGAKITGPKNENIKTLPAKRNEQDQKQLIVPLADSLKPGTYTVDWHVVSVDGHKTKGHYTFSVK [P0AA57]”, the “total protein half-life in vivo” value runs as follows: under setting [1], 5.53 h; under setting [3], more than 8 h; under setting [4], 5.82 h; under setting [5], 4.84 h; under setting [6], 3.06 h; under setting [7], 5.46 ± 0.25 h. The “total protein half-life in vivo” value amounted to 9.96 ± 0.3 h under setting [8]; 5.82 ± 0.43 h under setting [9]; 9.82 ± 0.3 h under setting [12]; 4.82 h under setting [10]; 9.37 ± 0.95 h under setting [11].
